Results: patent US20060148017A1 (published 2006)
Changes are numbered by the printed parent chain.

How the values were obtained:
Zip 1 = system: T1, Zip 1
T1 sequence: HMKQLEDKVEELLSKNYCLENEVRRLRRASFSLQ

Zip 2 = system: T2, Zip 2
T2 sequence: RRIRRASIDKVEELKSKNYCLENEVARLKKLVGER

Zip4T = system: T3, Zip4T
T3 sequence: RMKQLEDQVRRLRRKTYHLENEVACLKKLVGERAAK

Zip4S = system: T4, Zip4S
T4 sequence: T3 sequence with T16S

[1] = target: the molecule itself; assay: circular dichroism thermal denaturation (self-association of unmodified Zip4S is implied)
Experimental: The circular dichroism (measured in units of ellipticity) of proteins at 222 nm provides a measure of the amount of α-helix present in the structure, with a large, negative ellipticity indicting a high level of helicity. […] In all experiments described herein, peptide concentration was determined by tyrosine absorbance at 280 nm in 6M GuHCl.

protein kinase A (PKA)
phosphorylation by reverse-phase HPLC and radioactive assay (Zip 1): The peptides were both shown to be good substrates for PKA by reverse-phase HPLC and radioactive assay
phosphorylation by reverse-phase HPLC and radioactive assay (Zip 2): The peptides were both shown to be good substrates for PKA by reverse-phase HPLC and radioactive assay
timecourse of phosphorylation (32P incorporation) (Zip4T): Zip4T is also phosphorylated, but at a slower rate, with full phosphorylation achieved in 30 minutes in this assay

Ca2+/Calmodulin-dependent Protein Kinase (CaMKII)
timecourse of phosphorylation (32P incorporation) (Zip4S): CaMKII was unable to phosphorylate Zip4S

B1: Zip4S (peptide)
peptide: T3 sequence with T16S
notes: GCN4 numbering)
binding result [1]: binds
